# Laboratory results taken from paper PMC11184549 (ACS Infectious Diseases, 2024).
# No end group written: not given here. *: point of attachment. FITC = O=C1OC2(c3ccc(O)cc3Oc3cc(O)ccc32)c2ccc(NC(=S)*)cc21; Ahx = NCCCCCC(=O)O
# Target: human IMPα1 lacking the IMPβ-binding domain (IMPαΔIBB) (human, UniProt P52292 70-529)
# Assay: fluorescence polarisation
binder,measurement,value
{FITC-Ahx}-LWGFLSRNKKPRICTREEF [FITC-labeled DENV1 NS5 NLS_(Central) peptide],Kd,> 700 nM
